Measurements from publication PMC8326117 (2021).

Molecular target: SARS-CoV-2 S-protein RBD (SARS-CoV-2, UniProt P0DTC2)
Test: SPR

## KKKKKKDKFNHEAEDLFY [S-protein neutralizing peptide AYn1]
  koff: 0.001 s⁻¹
